Measured values taken from FireProtDB.
“And” between values parts separate entries of the source, which are not always exact repeats. Identical values can stand only once.

B1: Triosephosphate isomerase, P00942 (parent)
chain: MARTFFVGGNFKLNGSKQSIKEIVERLNTASIPENVEVVICPPATYLDYSVSLVKKPQVTVGAQNAYLKASGAFTGENSVDQIKDVGAKWVILGHSERRSYFHEDDKFIADKTKFALGQGVGVILCIGETLEEKKAGKTLDVVERQLNAVLEEVKDWTNVVVAYEPVWAIGTGLAATPEDAQDIHASIRKFLASKLGDKAASELRILYGGSANGSNAVTFKDKADVDGFLVGGASLKPEFVDIINSRN
B2: Ribonuclease, P00648 (parent)
chain: MMKMEGIALKKRLSWISVCLLVLVSAAGMLFSTAAKTETSSHKAHTEAQVINTFDGVADYLQTYHKLPDNYITKSEAQALGWVASKGNLADVAPGKSIGGDIFSNREGKLPGKSGRTWREADINYTSGFRNSDRILYSSDWLIYKTTDHYQTFTKIR
B3: Alpha-lactalbumin, P00712 (parent)
chain: MMSFVSLLLVGILFHATQAEQLTKCEVFQKLKDLKDYGGVSLPEWVCTAFHTSGYDTQAIVQNNDSTEYGLFQINNKIWCKDDQNPHSRNICNISCDKFLDDDLTDDIVCAKKILDKVGINYWLAHKALCSEKLDQWLCEKL
B4: NADP-dependent isopropanol dehydrogenase, P25984 (parent)
chain: MKGFAMLGINKLGWIEKERPVAGSYDAIVRPLAVSPCTSDIHTVFEGALGDRKNMILGHEAVGEVVEVGSEVKDFKPGDRVIVPCTTPDWRSLEVQAGFQQHSNGMLAGWKFSNFKDGVFGEYFHVNDADMNLAILPKDMPLENAVMITDMMTTGFHGAELADIQMGSSVVVIGIGAVGLMGIAGAKLRGAGRIIGVGSRPICVEAAKFYGATDILNYKNGHIVDQVMKLTNGKGVDRVIMAGGGSETLSQAVSMVKPGGIISNINYHGSGDALLIPRVEWGCGMAHKTIKGGLCPGGRLRAEMLRDMVVYNRVDLSKLVTHVYHGFDHIEEALLLMKDKPKDLIKAVVIL
B5: Adenylate kinase, P16304 (parent)
chain: MNLVLMGLPGAGKGTQGERIVEDYGIPHISTGDMFRAAMKEETPLGLEAKSYIDKGELVPDEVTIGIVKERLGKDDCERGFLLDGFPRTVAQAEALEEILEEYGKPIDYVINIEVDKDVLMERLTGRRICSVCGTTYHLVFNPPKTPGICDKDGGELYQRADDNEETVSKRLEVNMKQTQPLLDFYSEKGYLANVNGQQDIQDVYADVKDLLGGLKK
B6: Phosphoglycerate kinase, P18912 (parent)
chain: MNKKTIRDVDVRGKRVFCRVDFNVPMEQGAITDDTRIRAALPTIRYLIEHGAKVILASHLGRPKGKVVEELRLDAVAKRLGELLERPVAKTNEAVGDEVKAAVDRLNEGDVLLLENVRFYPGEEKNDPELAKAFAELADLYVNDAFGAAHRAHASTEGIAHYLPAVAGFLMEKELEVLGKALSNPDRPFTAIIGGAKVKDKIGVIDNLLEKVDNLIIGGGLAYTFVKALGHDVGKSLLEEDKIELAKSFMEKAKEKGVRFYMPVDVVVADRFANDANTKVVPIDAIPADWSALDIGPKTRELYRDVIRESKLVVWNGPMGVFEMDAFAHGTKAIAEALAEALDTYSVIGGGDSAAAVEKFGLADKMDHISTGGGASLEFMEGKQLPGVVALEDK
B7: Lysozyme C, P61626 (parent)
chain: MKALIVLGLVLLSVTVQGKVFERCELARTLKRLGMDGYRGISLANWMCLAKWESGYNTRATNYNAGDRSTDYGIFQINSRYWCNDGKTPGAVNACHLSCSALLQDNIADAVACAKRVVRDPQGIRAWVAWRNRCQNRDVRQYVQGCGV

Variants of: B1
Conditions: Saccharomyces cerevisiae (strain ATCC 204508 / S288c); pH 7.4; Thermal; CD; Tris 50 mM; reversible: No; structure 1YPI; whole UniProt chain shown

Variant	change of melting temperature, mutant - wild type (higher = more stable)
C126A	-11.2 °C
C126S	-11.2 °C

Same assay, conditions: Saccharomyces cerevisiae (strain ATCC 204508 / S288c); pH 8.5; Thermal; CD; Tris 50 mM; reversible: No; structure 1YPI; whole UniProt chain shown

Variant	change of melting temperature, mutant - wild type (higher = more stable)
C126S	-13 °C

Variants of: B2
Conditions: Bacillus amyloliquefaciens; pH 2.7; Thermal; CD; glycine-HCl 20 mM; KCl 200 mM; reversible: yes; structure 1BNI; whole UniProt chain shown

Variant	Tm
I51A I98V	25.7 °C

Same assay, conditions: Bacillus amyloliquefaciens; pH 2.7; Thermal; DSC; glycine-HCl 20 mM; KCl 200 mM; reversible: yes; structure 1BNI; whole UniProt chain shown

Variant	Tm
I51A I98V	25.4 °C

Same assay, conditions: Bacillus amyloliquefaciens; pH 2.7; Thermal; DSC; glycine-HCl 20 mM; reversible: yes; structure 1BNI; whole UniProt chain shown

Variant	Tm
S132C H149C	47.4 °C

Same assay, conditions: Bacillus amyloliquefaciens; pH 6.15; 25 °C; Urea; Fluorescence; MES 19.3 mM; reversible: yes; structure 1BNI; whole UniProt chain shown

Variant	ddG of mutation (higher = less stable)	denaturant midpoint (higher = more stable)	unfolding free energy
F54L	4.1 kcal/mol	2.42 M	6.4 kcal/mol

Same assay, conditions: Bacillus amyloliquefaciens; pH 6.3; 25 °C; Thermal; Fluorescence; MES 50 mM; structure 1BNI; whole UniProt chain shown

Variant	ddG of mutation (higher = less stable)	unfolding free energy
D101A	3.3 kcal/mol	6.9 kcal/mol
D101N	2.6 kcal/mol	7.6 kcal/mol
D122N	5 kcal/mol	5.2 kcal/mol

Same assay, conditions: Bacillus amyloliquefaciens; pH 6.3; 25 °C; Urea; Fluorescence; MES 10 mM; reversible: yes; structure 1BNI; whole UniProt chain shown

Variant	ddG of mutation (higher = less stable)	denaturant m value	denaturant midpoint (higher = more stable)	unfolding free energy
S75E	-0.61 kcal/mol	1.99 kcal/mol/M	4.74 M	9.44 kcal/mol

Same assay, conditions: Bacillus amyloliquefaciens; pH 6.3; 25 °C; Urea; Fluorescence; MES 19.3 mM; reversible: yes; structure 1BNI; whole UniProt chain shown

Variant	ddG of mutation (higher = less stable)	denaturant midpoint (higher = more stable)	unfolding free energy
I143A	4 kcal/mol	2.24 M	6.5 kcal/mol

Same assay, conditions: Bacillus amyloliquefaciens; pH 6.3; 25 °C; Urea; Fluorescence; MES 50 mM; reversible: yes; structure 1BNI; whole UniProt chain shown

Variant	ddG of mutation (higher = less stable)
I143A	3.52 kcal/mol
T53A	2.23 kcal/mol
L61A	4.8 kcal/mol
T63S	1.87 kcal/mol
H65Q	1.6 kcal/mol
T73A	2.14 kcal/mol
Y125F	1.5 kcal/mol
I135A	4.46 kcal/mol
I143V	0.98 kcal/mol

Same assay, conditions: Bacillus amyloliquefaciens; pH 6.3; 25 °C; Urea; Fluorescence; MES 50 mM; structure 1BNI; whole UniProt chain shown

Variant	ddG of mutation (higher = less stable)
E120F	2.1 kcal/mol
E120Q	2.7 kcal/mol
E120W	2.2 kcal/mol

Same assay, conditions: Bacillus amyloliquefaciens; pH 6.3; 25 °C; Urea; Fluorescence; MES 1.00 M; NaCl 613 mM; reversible: yes; structure 1BNI; whole UniProt chain shown

Variant	ddG of mutation (higher = less stable)
Y60A	3.71 kcal/mol
Y60A Y64A	4.64 kcal/mol
T63S Y64A	2.39 kcal/mol
Y64A	2.26 kcal/mol

Same assay, conditions: Bacillus amyloliquefaciens; pH 6.3; 25 °C; Urea; Fluorescence; MES 1 M; structure 1BNI; whole UniProt chain shown

Variant	ddG of mutation (higher = less stable)	unfolding free energy
H65A	2.15 kcal/mol	6.75 kcal/mol
H65G	0.89 kcal/mol	8.01 kcal/mol
K74A	-0.53 kcal/mol	9.43 kcal/mol
A79G	0.91 kcal/mol	7.99 kcal/mol

Variants of: B3
Conditions: Capra hircus; pH 7; 25 °C; Thermal; CD; sodium cacodylate 50 mM; CaCl2 1 mM; structure 1HFY; whole UniProt chain shown

Variant	ddG of mutation (higher = less stable)
T48I	-1.37 kcal/mol
T48V	-1.86 kcal/mol

Variants of: B4
Conditions: Clostridium beijerinckii; pH 6.8; Thermal; CD; Na/K phosphate 50 mM; structure 1KEV; whole UniProt chain shown

Variant	Tm	change of melting temperature, mutant - wild type (higher = more stable)
Q165E M304R	70.4 °C	5.3 °C
V224E S254K	70.5 °C	5.4 °C
V224E S254K Q165E M304R	73.7 °C	8.6 °C
V224E S254K Q165E M304R R238A	73.6 °C	8.5 °C

Variants of: B5
Conditions: Bacillus subtilis (strain 168); pH 7.4; Thermal; DSC; Hepes 50 mM; reversible: No; structure 2EU8; whole UniProt chain shown

Variant	change of melting temperature, mutant - wild type (higher = more stable)
L3I G17A D23K K69R G73S D75S I99S Y103M K105R E114Q D118E V119E M121I E122A S169T Q180A D184A S187D E188S G190E Y191V A193V Y205F D210V L211I K217Q	12.5 °C
L3I G17A D23K K69R G73S D75S Y103M K105R E114Q D118E V119E S169T Q180A D184A S187D E188S G190E Y191V A193V Y205F D210V L211I K217Q	11.6 °C
D23K Y103M E114Q S169T Q180A S187D A193V V208L D210V K217Q	5 °C

Variants of: B6
Conditions: Geobacillus stearothermophilus; pH 7.2; 25 °C; GdnHCl; Fluorescence; TEA 50 mM; reversible: no; structure 1PHP; whole UniProt chain shown

Variant	unfolding free energy
I217A L221A	5.7 kcal/mol and 9.6 kcal/mol

Variants of: B7
Conditions: Homo sapiens; pH 2.35; 36.7 °C; Thermal; DSC; Gly-HCl 0.05 M; reversible: yes; structure 1LZ1; whole UniProt chain shown

Variant	unfolding enthalpy (calorimetric)	unfolding enthalpy (van 't Hoff)
I77A	55.7 kcal/mol	58.1 kcal/mol

Same assay, conditions: Homo sapiens; pH 2.9; 47.2 °C; Thermal; DSC; Gly-HCl 0.05 M; reversible: yes; structure 1LZ1; whole UniProt chain shown

Variant	unfolding enthalpy (calorimetric)	unfolding enthalpy (van 't Hoff)
I77A	72.7 kcal/mol	74.8 kcal/mol

Same assay, conditions: Homo sapiens; pH 3; 10 °C; GdnHCl; Fluorescence; glycine-HCl 40 mM; reversible: yes; structure 1LZ1; whole UniProt chain shown

Variant	ddG of mutation (higher = less stable)	unfolding free energy
C95A C113A	5.7 kcal/mol	6.1 kcal/mol

Same assay, conditions: Homo sapiens; pH 4; 10 °C; GdnHCl; CD; glycine-HCl 40 mM; reversible: yes; structure 1LZ1; whole UniProt chain shown

Variant	ddG of mutation (higher = less stable)	unfolding free energy
C95A C113A	5.8 kcal/mol	8.2 kcal/mol
